In US20180280504A1, “GLYCAN-INTERACTING COMPOUNDS AND METHODS OF USE” (SIAMAB THERAPEUTICS, INC., priority 2014, published 2018):
Where a chain is given by its changes, count along the chain named. Names and notes keep the numbering of the source. Values joined by “and” are separate entries in the source; they are usually repeats but may differ in a detail not shown here. Equal entries are not always repeated. Where two headings read alike, the source gives them in different places.

B1: 18C7: anti-STn mouse monoclonal, IgG2c κ, from mouse #4436; VH SEQ ID NO: 4, VL SEQ ID NO: 5 (antibody, V domains shown)
VH: QVTLKESGPGILQPSQTLSLTCSFSGFSLSTFGMGVGWIRQPSGKGLEWLAHIWWDDDKYYNPALKSRLTISKDTSKNQVFLKIANVDTADTATYYCARIAYYYGSERDYWGQGTTLTVSS
VL: QIVLTQSPAIMSASPGEKVTMTCSASSSISYMHWYHQKPGTSPKRWIYDTSKLASGVPARFSGSGSGTSYSLTISSMEAEDAATYYCHQRSSYTFGGGTKLEIKR
B2: 10A5: anti-STn mouse monoclonal, IgG2c κ, from mouse #4406; VH SEQ ID NO: 6, VL SEQ ID NO: 7 (antibody, V domains shown)
VH: QVQLKESGPGLVAPSQSLSITCTVSGFSLTSYGVSWVRQPPGKGLEWLGVIWGDGSTNYHSSLISRLSISKDNSKSQVFLKLNSLQTDDTATYYCARAFVYWGQGTLVTVSA
VL: QIVLTQSPAIMSASPGEKVTMTCSASSSVSYIHWYQQKSGTSPKRWIYDTSKLASGVPARFSGSGSGTSYSLTISSMEAEDAATYYCQQWSSNPPMLTFGAGTKLELK
B3: 8C11: anti-STn mouse monoclonal, IgG2b κ, from mouse #4407; VH SEQ ID NO: 8, VL SEQ ID NO: 9 (antibody, V domains shown)
VH: B2 VH with S62A, S68I, A96T, R97K, A98G, V100T
VL: QIVLTQSPAIMSASPGEKVTMTCSASSSVSYMHWYQQKSGTSPKRWIFDTSKLASGVPARFSGSGSGTSYSLTISSMEAEDAATYYCQQWSSNLLTFGAGTKLELK
B4: 2D4: anti-STn mouse monoclonal, IgG2b κ, from mouse #4407; VH SEQ ID NO: 10, VL SEQ ID NO: 11 (antibody, V domains shown)
VH: B2 VH with K5Q, T30I, S35N, H60Q, S62A, S68I, A96T, R97K, A98G, V100A
VL: B3 VL with Y35F, F48Y
B5: 7G9: anti-STn mouse monoclonal, IgG2b κ, from mouse #4407; VH SEQ ID NO: 12, VL SEQ ID NO: 9 (antibody, V domains shown)
VH: B2 VH with S17N, S35N, S62A, S68I, D72E, D88N, A96T, R97K, A98G
VL: B3 VL
B6: S3F: 3F1 variable domains combined with IgG2a constant domains; heavy chain SEQ ID NO: 63, light chain SEQ ID NO: 64 (antibody)
heavy: QVQLQQSDAELVKPGASVKISCKASGYTFTDHAIHWVKQKPEQGLDWIGYISPGNGDIKYNEKFKDKVTLTADKSSSTACMHLNSLTSEDSAVYFCKRSLLALDYWGQGTTLTVSSAKTTAPSVYPLAPVCGDTTGSSVTLGCLVKGYFPEPVTLTWNSGSLSSGVHTFPAVLQSDLYTLSSSVTVTSSTWPSQSITCNVAHPASSTKVDKKIEPRGPTIKPCPPCKCPAPNLLGGPSVFIFPPKIKDVLMISLSPIVTCVVVDVSEDDPDVQISWFVNNVEVHTAQTQTHREDYNSTLRVVSALPIQHQDWMSGKEFKCKVNNKDLPAPIERTISKPKGSVRAPQVYVLPPPEEEMTKKQVTLTCMVTDFMPEDIYVEWTNNGKTELNYKNTEPVLDSDGSYFMYSKLRVEKKNWVERNSYSCSVVHEGLHNHHTTKSFSRTPGK
light: DIVMTQSHKFMSTSVGDRVSITCKASQDVGTNIAWYQQKPGRSPKVLIYSASTRHTGVPDRFTGSGSGTDFTLTISNVQSEDLTDYFCQQYSSFPLTFGVGTKLELKRADAAPTVSIFPPSSEQLTSGGASVVCFLNNFYPKDINVKWKIDGSERQNGVLNSWTDQDSKDSTYSMSSTLTLTKDEYERHNSYTCEATHKTSTSPIVKSFNRNEC

Assays:
Glycan array, AcSTn = type: binding; conditions: for Glycan Array AcSTn: summary table
Method: (§1) Optimized glycan arrays comprise 71 chemically synthesized and well-defined glycans, most of which comprise Neu5Ac and Neu5Gc glycan pairs.
(§2) 300 ml of epoxy blocking buffer is prepared by combining 15 ml of 2 M Tris buffer (pH 8) with 0.9 ml of 16.6 M ethanolamine and 284.1 ml of distilled water. The solution was brought to a final pH of 9.0 with HCl. The solution is filtered using a […] nitrocellulose membrane. The epoxy buffer solution as well as 1 L of distilled water are pre-warmed to 50° C. Glass slides are arranged in a slide holder and quickly submerged in a staining tub with the warmed epoxy blocking buffer. Slides are incubated in the epoxy blocking buffer for 1 hour at 50° C. with periodic shaking to deactivate epoxy binding sites. Next, slides are rinsed and blocked with PBS with 1% OVA at 25° C. for one hour. Serum samples with polyclonal antibodies (1:1000) or purified monoclonal antibodies (1 ug/mL), are diluted in PBS with 1% OVA and added to the glycan array for one hour at 25° C. After extensive washing, binding of antibodies are detected by incubating glycan microarray slides with Cy3-conjugated anti-mouse IgG (Jackson Immunoresearch, West Grove, Pa.) for one hour. Slides are then washed extensively, dried and scanned with a Genepix 4000B scanner (Laser at 100%; gain at 350; 10 μm pixels). Raw data from scanned images are extracted using the Genepix software and analysis of raw data is carried out.

Glycan array, GcSTn = type: binding; conditions: for Glycan Array GcSTn: summary table
Method: as §1, §2

[1] = Glycan array STn specificity and anti-STn antibody group assignment; type: binding; design: key to Group (anti-STn antibody group): Group 1: antibodies capable of binding AcSTn and GcSTn; Group 2: ability to bind STn as well as some related structures that include an O-linkage to serine or threonine; Group 3: antibodies capable of binding STn, but may also bind a broader set of related structures; Group 4: capable of binding to both AcSTn and GcSTn as well as the un-sialylated Tn antigen; conditions: for Group (anti-STn antibody group): assigned from flow cytometry and glycan array analysis; for Glycan Array STn Specificity: summary table
Method: as §2
Based on characterization data, anti-STn antibodies developed from Group 6 and Group 8 mice were categorized by anti-STn group number. In some cases, antibodies were assigned to Group 1. Group 1 antibodies according to the invention are antibodies capable of binding AcSTn and GcSTn. Such antibodies may have the ability to associate with a wider range of STn structures. The large oval in FIG. 1A indicates the portion of STn recognized by Group 1 antibodies. Antibodies were assigned to Group 2 based on their ability to bind STn as well as some related structures that include an O-linkage to serine or threonine. The large oval in FIG. 1B indicates the portion of STn recognized by Group 2 antibodies. In some cases, Group 2 antibodies may bind to glycans comprising a sialylated galactose residue. Some Group 2 antibodies preferably bind to structures with AcSTn over structures with GcSTn. Further anti-STn antibodies were assigned to Group 3. Group 3 antibodies are antibodies capable of binding STn, but may also bind a broader set of related structures. […] The large oval in FIG. 1C indicates the portion of STn recognized by Group 3 antibodies. Finally, some anti-STn antibodies were assigned to Group 4. Group 4 antibodies are capable of binding to both AcSTn and GcSTn as well as the un-sialylated Tn antigen, and therefore have broader specificity. The large oval in FIG. 1D indicates the portion of STn recognized by Group 4 antibodies. […] Also listed in the Table is the antibody Isotype for each antibody as determined by the IsoStrip mouse monoclonal antibody isotyping kit (Roche Diagnostics GmbH, Manheim, Germany).

[2] = test system: ST6GalNAc 1 transfected MDA-MB-231 cells (MDA-STn+); assay: Flow cytometry-based analysis of antibody binding, STn+ cells; design: species or system human; conditions: for EC50, flow cytometry binding to cell-associated STn: ST6GalNAc 1 transfected MDA-MB-231 cells, APC anti-mouse IgG
Method: Flow cytometry-based analysis is carried out to elucidate the curve-dose response for binding of antibodies to cell surface antigens. For these analyses, three cell lines are employed.
MDA-MB-231 cells are human breast cancer cells. They are grown in Earle's Minimum Essential Medium supplemented with 10% fetal calf serum (FCS), 100 μg/ml penicillin, 100 UI/ml streptomycin and 45 μg/ml gentamycin. MCF-7 cells are also human breast cancer cells and are grown under the same conditions as MDA-MB-231 cells. Stably transfected versions of MDA-MB-231 and MCF-7 cells (clone TAH3.P10 for MDA-MB-231 cells and clone A12.1 for MCF-7 cells) that over express GalNAc α2,6-sialyltransferase (ST6GalNAc 1,) are also cultured under the same conditions with the exception of an added 1 mg/ml of G418 to support cells expressing the transgene. ST6GalNAc 1 is an enzme capable of sialylating GalNAc. As a result of over expression, transfected cells express high levels of Neu5Ac-STn (see Julien, S. et al., Glycoconjugate journal. 2001. 18, 883-93; the contents of which are herein incorporated by reference in their entirety). E3 cells are murine breast cancer cells. They are cultured in Dulbecco's E4 medium with 10% FCS. Stably transfected versions of E3 cells expressing high levels of Neu5Gc-STn (E3-STn) are cultured with 600 μg/ml of G418 and 200 μg/ml hygromycin. During growth and maintenance of experimental cells, trypsin is not used for cell passaging.
For analysis, cells are harvested using StemPro Accutase (Life Technologies, Carlsbad, Calif.) and washed with PBS comprising 5% FBS before pelleting by light centrifugation. Cell numbers and viability are determined by trypan blue dye exclusion analysis and cell concentrations are adjusted to 5×10^6 cells/ml in PBS with 5% FBS. 50 μl of cells are added to each well of an assay plate. Cells are combined with 50 μl solutions of antibody being analyzed or control antibodies and incubated for 1 hour at 4° C. Cells are washed and pelleted twice with PBS with 5% FBS before being treated with 100 μl of PBS with 5% FBS comprising a 1:1,500 dilution of anti-mouse IgG (Southern Biotech, Birmingham, Ala.,) conjugated to allophycocyanin (APC). Cells are incubated for 30 min at 4° C. before washing and resuspending in 200 μl of propidium iodide (PI) diluted 1:1000 in PBS with 5% FBS. Treated cells are then subjects to flow cytometry analysis and 10,000 events are acquired for each sample.

[3] = glycan microarray, Cy3 anti-mouse IgG
[4] = summary table, unit not printed (same values in nM), read-out: Flow cytometry (EC50) MDA-STn+
[5] = STn expressed on MDA cells, based on mean fluorescence intensity of APC, #1, #2, #3 = lots, nM, read-out: EC50 value

Molecule	mean fluorescence intensity, AcSTn (Glycan array, AcSTn; [3])	Glycan Array AcSTn (Glycan array, AcSTn) [%]	mean fluorescence intensity, GcSTn (Glycan array, GcSTn; [3])	Glycan Array GcSTn (Glycan array, GcSTn) [%]	Group (anti-STn antibody group) [1]	Glycan Array STn Specificity [1] [%]	EC50, flow cytometry binding to cell-associated STn [2]	EC50 [2, 4] [nM]	EC50 [2, 5] [nM]	EC50, flow cytometry binding to cell-associated STn ([2]; listed as 8C11 Lot 111113) [nM]	EC50, flow cytometry binding to cell-associated STn ([2]; listed as 2D4-1B4) [nM]	EC50 ([2]; STn expressed on MDA cells, based on mean fluorescence intensity of APC, #1, #2, #3 = lots, nM, listed as 2D4#1, read-out: EC50 value) [nM]	EC50 ([2]; STn expressed on MDA cells, based on mean fluorescence intensity of APC, #1, #2, #3 = lots, nM, listed as 2D4#2, read-out: EC50 value) [nM]	EC50, flow cytometry binding to cell-associated STn ([2]; listed as 7G9#2) [nM]	EC50, flow cytometry binding to cell-associated STn ([2]; listed as 7G9#3) [nM]
B1	about 9,000	60	about 3,500	40	Group 1	100	60.35 nM	354	–	–	–	–	–	–	–
B2	–	96	–	1	Group 2	97	3.62 nM and 5.57 nM	5.57	5.57	–	–	–	–	–	–
B3	–	75	–	9	Group 2	84	7.52 nM	–	–	7.28	–	–	–	–	–
B4	–	88	–	1	Group 2	89	1.41 nM	1.41	–	–	1.19	2.23	1.41	–	–
B5	–	72	–	7	Group 2	79	6.91 nM	5.15	5.15	–	–	–	–	7.33	5.15
B6	–	63	–	31	–	94	2.051 nM and 2.13 nM and 1.94 nM	1.06	–	–	–	–	–	–	–
